Test results reported in patent US20250270269A1 (YUHAN, published 2025).

Molecular target: human GLP-1 receptor (human, UniProt P43220 24-463)
Assay: cell-based or functional assay

in vitro GLP-1 activity (intracellular cAMP, EC50 compared) | Binder
2 to 3 times lower activity than the dual function proteins with other GLP-1 mutant sequences | DFD23 (Fc fusion) HGEGTFTSDVSSYLEGQAAKEFIAWLVKGRGEKEKEEQEERETKTPECPSHTQPLGVFLFPPKPKDTLMISRTPEVTCVVVDVSQEDPEVQFNWYVDGVEVHNAKTKPREEQFNSTYRVVSVLTVLHQDWLNGKEYKCKVSNKGLPSSIEKTISKAKGQPREPQVYTLPPSQEEMTKNQVSLTCLVKGFYPSDIAVEWESNGQPENNYKTTPPVLDSDGSFFLYSRLTVDKSRWQEGNVFSCSVMHEALHNHYTQKSLSLSLGKGGGGSGGGGSGGGGSHPIPDSSPLLQFGGQVRQRYLYTDDAQQTEAHLEIREDGTVGGAADQSPESLLQLKALKPGVIQILGVKTSRFLCQRPDGALYGSLHFDPEACSFREEIRPDGYNVYQSEAHGLPLHLPGNKSPHRDPAPRGPARFLPLPGLPPALPEPPGILAPQPPDVGSSDPLSMVTGLEAVRSPSYAS
~2 times higher activity than the dual function proteins DFD69, DFD112 and DFD114 | DFD59: GLP1(GEG)-HyFc40 (Fc fusion) HGEGTFTSDVSSYLEEQAAKEFIAWLVKGGGEKEKEEQEERETKTPECPSHTQPLGVFLFPPKPKDTLMISRTPEVTCVVVDVSQEDPEVQFNWYVDGVEVHNAKTKPREEQFNSTYRVVSVLTVLHQDWLNGKEYKCKVSNKGLPSSIEKTISKAKGQPREPQVYTLPPSQEEMTKNQVSLTCLVKGFYPSDIAVEWESNGQPENNYKTTPPVLDSDGSFFLYSRLTVDKSRWQEGNVFSCSVMHEALHNHYTQKSLSLSLGK
